Test results taken from EP1473042A1 (City of Hope, dated 2004).

B3: human RXRα (9-cis retinoic acid receptor), full-length, wild type (receptor, UniProt P19793 1-462, looked up)
chain: MDTKHFLPLDFSTQVNSSLTSPTGRGSMAAPSLHPSLGPGIGSPGQLHSPISTLSSPINGMGPPFSVISSPMGPHSMSVPTTPTLGFSTGSPQLSSPMNPVSSSEDIKPPLGLNGVLKVPAHPSGNMASFTKHICAICGDRSSGKHYGVYSCEGCKGFFKRTVRKDLTYTCRDNKDCLIDKRQRNRCQYCRYQKCLAMGMKREAVQEERQRGKDRNENEVESTSSANEDMPVERILEAELAVEPKTETYVEANMGLNPSSPNDPVTNICQAADKQLFTLVEWAKRIPHFSELPLDDQVILLRAGWNELLIASFSHRSIAVKDGILLATGLHVHRNSAHSAGVGAIFDRVLTELVSKMRDMQMDKTELGCLRAIVLFNPDSKGLSNPAEVEALREKVYASLEAYCKHKYPEQPGRFAKLLLRLPALRSIGLKCLEHLFFFKLIGDTPIDTFLMEMLEAPHQMT
notes: mature; also called wild-type RXR

How the values were obtained:
[1] = target: B3; experiment: electrophoretic mobility shift, DR1 probe, increasing LG268
[2] = target: GST-GRIP1 (glutathione-S-transferase fused to the three receptor interaction domains of mouse GRIP1, Arg 625 - Lys 765) (mouse) (UniProt Q61026); experiment: electrophoretic mobility shift, DR1 probe, 5 µg GST-GRIP1, LG268 0-1000 nM
[3] = target: T1, rat FXR (farnesoid X-activated receptor), full-length (rat, UniProt Q62735 1-469); experiment: DNA binding as heterodimer (Figure 5 and data not shown)
T1 construct: mature; in vitro translated for the mobility shift assays; also called bile acid nuclear receptor; BAR
T1 sequence (looked up): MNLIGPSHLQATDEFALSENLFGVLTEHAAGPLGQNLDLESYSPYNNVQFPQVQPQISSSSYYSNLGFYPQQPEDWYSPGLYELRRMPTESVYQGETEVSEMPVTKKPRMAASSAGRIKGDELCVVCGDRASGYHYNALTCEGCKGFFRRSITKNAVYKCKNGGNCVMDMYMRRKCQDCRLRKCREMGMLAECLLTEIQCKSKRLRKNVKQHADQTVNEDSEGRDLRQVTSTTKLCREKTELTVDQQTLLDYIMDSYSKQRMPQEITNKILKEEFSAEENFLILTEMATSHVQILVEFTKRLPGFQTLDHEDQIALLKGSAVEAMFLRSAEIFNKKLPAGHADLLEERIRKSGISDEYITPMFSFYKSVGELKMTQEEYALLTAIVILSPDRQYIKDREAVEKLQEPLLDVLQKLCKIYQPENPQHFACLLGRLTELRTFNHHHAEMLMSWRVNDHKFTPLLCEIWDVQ

[4] = target: GST-GRIP1 (glutathione-S-transferase fused to the three receptor interaction domains of mouse GRIP1, Arg 625 - Lys 765) (mouse) (UniProt Q61026); experiment: phosphorimager quantitation of the mobility shift autoradiogram (Figure 4)
[5] = target: T1, rat FXR (farnesoid X-activated …); experiment: electrophoretic mobility shift, hsp27 EcRE probe, in vitro translated FXR + RXR

B1: GST-GRIP1 (glutathione-S-transferase fused to the three receptor interaction domains of mouse GRIP1, Arg 625 - Lys 765) (other, UniProt Q61026 625-765, looked up)
chain: RAEGHSRLHDSKGQTKLLQLLTTKSDQMEPSPLPSSLSDTNKDSTGSLPGPGSTHGTSLKEKHKILHRLLQDSSSPVDLAKLTAEATGKELSQESSSTAPGSEVTVKQEPASPKKKENALLRYLLDKDDTKDIGLPEITPK
notes: range 625-765; Expressed in E. coli, purified on glutathione-sepharose; also called CoA; not shown: glutathione-S-transferase (GST)
Question: Does B1 bind [1]?
Answer: binds

B2: RXRm, human RXRα with the single point mutation Asp 322→Pro in the ligand binding domain (receptor, UniProt P19793 1-462, looked up)
chain: MDTKHFLPLDFSTQVNSSLTSPTGRGSMAAPSLHPSLGPGIGSPGQLHSPISTLSSPINGMGPPFSVISSPMGPHSMSVPTTPTLGFSTGSPQLSSPMNPVSSSEDIKPPLGLNGVLKVPAHPSGNMASFTKHICAICGDRSSGKHYGVYSCEGCKGFFKRTVRKDLTYTCRDNKDCLIDKRQRNRCQYCRYQKCLAMGMKREAVQEERQRGKDRNENEVESTSSANEDMPVERILEAELAVEPKTETYVEANMGLNPSSPNDPVTNICQAADKQLFTLVEWAKRIPHFSELPLDDQVILLRAGWNELLIASFSHRSIAVKPGILLATGLHVHRNSAHSAGVGAIFDRVLTELVSKMRDMQMDKTELGCLRAIVLFNPDSKGLSNPAEVEALREKVYASLEAYCKHKYPEQPGRFAKLLLRLPALRSIGLKCLEHLFFFKLIGDTPIDTFLMEMLEAPHQMT
notes: mature; also called mutant RXR; RXR mutant
Question: With B2 as the binder, how does the fold decrease in potency of coactivator recruitment compared to wild type RXR [2] read?
Answer: 100 fold

Question: Does B2 bind [3]?
Answer: binds

Question: And the fold higher concentration of ligand (LG268) required for recruitment of coactivator, against wild-type RXR [4]?
Answer: 100 fold

Question: Does B3 bind [5]?
Answer: binds
